In the supplement of paper PMC9170038:

Tested on: MS2 coat protein
Assay: apparent KD of MS2 coat protein; designed switch direction (-1 OFF switch, 1 ON switch): -1; higher = weaker reporter binding
How it was run: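 For each design, the apparent KD is the median over clusters of curves fitted to normalised cluster fluorescence. Clusters held RNA switches with common flanks, transcribed on Illumina chips by stalled E. coli RNA polymerase. These were titrated with SNAP-549-labelled MS2 coat protein, doubling from 0.7 or 1.5 nM to 3 µM, without input, with 200 uM small-molecule ligand, or with an oligonucleotide input.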

[1] = input ligand: microRNA oligo, concentration not stated
[2] = Eterna round: R95, input ligand: microRNA oligo, concentration not stated

Sequence	apparent KD of MS2 coat protein (input ligand: FMN 200 uM)	apparent KD of MS2 coat protein [1]	apparent KD of MS2 coat protein (input ligand: none)	apparent KD of MS2 coat protein [2]
UUAUUAUAUGUAGGAUAUGCAUAUUGUUGUUAUGCAGAAGGACAUGAGGAUCACCCAUGUAUAUUGUUGUUAUAUAUUAUAUAU [Title] (Eterna round: R96, puzzle: Exclusion NG 1)	27.1 nM	18.6 nM	22.3 nM	–
UUCACAUGGACAUAAGAUCACAUGAGGAUCACCCAUGUGAAUAACAAGCUUUUUGCUCGUCUUAUGUCCAAUAAUAA [Stov1/14-A1] (Eterna round: R97, puzzle: Sensor, turn-off variant 1)	14.1 nM	–	12.2 nM	–
UUCACAUGGACAUGAGAUCACAUGAGGAUCACCCAUGUGAAUAACAAGCUUUUUGUUCGUCUUAUGUCCAAUAAUAG [Stov1/14-D3] (Eterna round: R97, puzzle: Sensor, turn-off variant 1)	14 nM	–	14.1 nM	–
UUCAGACAUGAGGAUCACCCAUGUGAGGAUAUGAUGCGAUCGUCGAAAGACGAUAGCAUCAGAAGGCACAUAUG [Fiskers Ex 1 - 17] (puzzle: Exclusion 1)	–	–	–	153 nM
UUCAUGUGAGGAUAUGUGCAAGACCUAGAGAUUGGGUUUUCACAGAAGGCACAUGAGGAUCACCCAUGUGUUAC [Eternabot (L2) Solution 23] (Eterna round: R97, puzzle: Exclusion 4)	232 nM	–	126 nM	–
UUCCAACAUGAGGAUCACCCAUGUCAGGAUAUGCGACCUCCACCACCAACCUCACCUCGCAGAAGGGACACACC [Mod-Cyanosaur/default-title] (Eterna round: R97, puzzle: Exclusion 1)	24.2 nM	–	23.7 nM	–
UUCCGACAUGAGGAUCACCCAUGUGAGGAUAUGUUCGAAAGCUAAGACUGCGACAGGAAUAGAAGGCGCGGGUA [Eternabot (Original) Solution 17] (Eterna round: R97, puzzle: Exclusion 1)	20.4 nM	–	20.4 nM	–
UUCCUCACUUCUUUGUCUCACAUGAGGAUCACCCAUGUAAUAUAGGAUAUGCAUAGUAUUUCUAUGCAGAAGGAUAUUAGUUUU [JR_ExcNG3_Sub087] (Eterna round: R96, puzzle: Exclusion NG 3)	131 nM	27.3 nM	34.7 nM	–
UUCCUCUCUUCUCUGUCUCACAUGAGGAUCACCCAUGUAACAUAGGAUAUGCUUGGUAUUUAAAUGCAGAAGGAUGUUAGUAUU [JR_ExcNG3_Sub082] (Eterna round: R96, puzzle: Exclusion NG 3)	82.9 nM	22.4 nM	30.2 nM	–
UUCGUGCAGCUUUGCUGUACGAGUACAUGAGGAUCACCCAUGUAGGAUAUGGUACGCUUUGCGUGCUAGAAGGAUAUGUGUAGG [JL EXNG3 1.37] (Eterna round: R96, puzzle: Exclusion NG 3)	55.5 nM	27.5 nM	43.9 nM	–
UUCUACAAGCUGAGAUCCUACAUGAGGAUCACCCAUGUGGUCCGGAACAUUCUGUCACCGGAUCUUGCUCGUCUUGU [salish99_S_TOV1_R5_104] (Eterna round: R97, puzzle: Sensor, turn-off variant 1)	41.9 nM	–	48.4 nM	–
UUCUGGACAGGAUAUGUACUUGAGCACUUGAGGAUCACCCAAGUCCUCAAGUACUCAGGCACAGAAGGGUUAAUUU [jl-ex5.4.65 ViennaUCT mod] (Eterna round: R97, puzzle: Exclusion 5)	110 nM	–	71.9 nM	–
UUGAAGUCGUCAGGAUAUAGAUUUAAUGUCAUGCGUAUGUUCUUACAUGAGGAUCACCCAUGUCGCUAGAAGGGACUAUAGAUU [JR_ExcNG2_Sub008] (Eterna round: R96, puzzle: Exclusion NG 2)	54.6 nM	35.1 nM	45.1 nM	–
UUGAAUUAGCAGGAUAUGGGAGUCGAUAGACACCCAGAAGGGCUAACAUGAGGAUCACCCAUGUGUCCUAUCAA [Mod of Eli 22 - Jieux - Exclusion 6] (Eterna round: R97, puzzle: Exclusion 6)	204 nM	–	33.9 nM	–
UUGAUACAUGAGGAUCACCCAUGUUAGGAUAUACGCAUGCAUGCAUGCAUGCAUGCAAGUAGAAGGAACCAUGC [Design #1] (Eterna round: R97, puzzle: Exclusion 1)	30.7 nM	–	42 nM	–
UUGAUGUCAUCAGGAUAUAGUAUUUAAGACAUAUCUUCUUUCUUACAUGAGGAUCACCCAUGUCGCUAGAAGGGAUGAAUGAUU [JR_ExcNG2_Sub086] (Eterna round: R96, puzzle: Exclusion NG 2)	–	13.4 nM	–	–
UUGCAGUCAUCAGGAUAUAGUAUUACGGCCAUUUAUAUUUUCAUACAUGAGGAUCACCCAUGUCGCUAGAAGGGAUUAUCGAUU [Exclusion NG 2] (Eterna round: R96, puzzle: Exclusion NG 2)	–	34.5 nM	–	–
UUGCAGUCGUCAGGAUAUAGUAUUACGGCCUUUCAUUUCUUCAUACAUGAGGAUCACCCAUGUCGCUAGAAGGGAUUAUCGAUU [salish99_ExNG2_r04_106] (Eterna round: R96, puzzle: Exclusion NG 2)	16 nM	17.1 nM	23 nM	–
UUGGAUGUUGAGGAUAUGCUGGUGUUUAUUAUAGCAGAAGGCGAUACAUGAGGAUCACCCAUGUUCAUGGCUUU [JR_E6_Sub100] (puzzle: Exclusion 6)	–	–	–	12.4 nM
UUGGUUGUGGUAGGAUAUCCGUUGGAAACCUUCGGAGAAGGACCACAGUCACUGGGUCUUUGUCUGGUGGACGGUUUCGACCGU [pwkr exNG1 F6.23] (Eterna round: R96, puzzle: Exclusion NG 1)	202 nM	281 nM	559 nM	–
UUGUAGUGAGGAUAUAUAUAGUGGUUUUAUUAAUUUUUAUUACUUGAGGAUCACCCAAGUAGAAGGCGCAAAGU [JR_Ex2_Sub071] (Eterna round: R97, puzzle: Exclusion 2)	19.2 nM	–	18.3 nM	–
UUGUAUAUAGGAUAUGUAAGAAGAAACAUGAGGAUCACCCAUGUAGCCUCAAAUUUUAUGACAGAAGGAUAUGUUA [Default title] (Eterna round: R97, puzzle: Exclusion 5)	36.2 nM	–	56 nM	–
UUGUUACAUGAGGAUCACCCAUGUGAGGAUAUGGUUAAGUAAUGUAAUGUAAAGUAAUCCAGAAGGCACAUGUU [1st #25] (Eterna round: R97, puzzle: Exclusion 1)	353 nM	–	196 nM	–
UUGUUAUAUGUAGGAUAUGCAUAUUAUUAUUAUGCAGAAGGACAUGAGGAUCACCCAUGUAUAUUGUUGUUAUAUAUUAUAUAU [Title] (Eterna round: R96, puzzle: Exclusion NG 1)	–	18.2 nM	–	–
UUGUUCCGUGUAGGAUAUUGGUCUCCCUCGGGCCGAGAAGGACAUGAGGAUCACCCAUGUAUGCUAUUAUCGCGCGUGGCGCAC [Design 93] (Eterna round: R96, puzzle: Exclusion NG 1)	138 nM	34.1 nM	47.3 nM	–
